Sequences and labels used below:
B1: CM0126 (Dia-Fc-Dia) (bispecific antibody)
chain 1: MNLLLILTFVAAAVAEFEVQLVESGGGLVQPGGSLRLSCAASGFNIHSSSIHWVRQAPGKGLEWVAATYSSFGSITYADSVKGRFTISADTSKNTAYLQMNSLRAEDTAVYYCARYHHPFGYALDYWGQGTLVTVSSGGGGSDIQMTQSPSSLSASVGDRVTITCRASQSVSSAVAWYQQKPGKAPKLLIYSASSLYSGVPSRFSGSRSGTDFTLTISSLQPEDFATYYCQQGVYLFTFGQGTKVEIKLEDKTHTKVEPKSSDKTHNCPPCPAPELLGGPSVFLFPPKPKDTLMISRTPEVTCVVVDVSHEDPEVKFNWYVDGVEVHNAKTKPREEQYNSTYRVVSVLTVLHQDWLNGKEYKCKVSNKALPAPIEKTISKAKGQPREPQVYTLPPIRELMTSNQVSLSCAVKGFYPSDIAVEWESNGQPENNYKTTPPVLDSDGSFFLVSKLTVDKSRWQQGNVFSCSVMHEALHNHYTQKSLSLSPGKSGSETPGTSESATPESGGGEVQLVESGGGLVQPGGSLRLSCAASGFNISSYYIHWVRQAPGKGLEWVASIYSSYGYTSYADSVKGRFTISADTSKNTAYLQMNSLRAEDTAVYYCARTVRGSKKPYFSGWAMDYWGQGTLVTVSSGGGGSDIQMTQSPSSLSASVGDRVTITCRASQSVSSAVAWYQQKPGKAPKLLIYSASSLYSGVPSRFSGSRSGTDFTLTISSLQPEDFATYYCQQYSWGPFTFGQGTKVEIK
chain 2: MNLLLILTFVAAAVAEFEVQLVESGGGLVQPGGSLRLSCAASGFNIHSSSIHWVRQAPGKGLEWVAATYSSFGSITYADSVKGRFTISADTSKNTAYLQMNSLRAEDTAVYYCARYHHPFGYALDYWGQGTLVTVSSGGGGSDIQMTQSPSSLSASVGDRVTITCRASQSVSSAVAWYQQKPGKAPKLLIYSASSLYSGVPSRFSGSRSGTDFTLTISSLQPEDFATYYCQQGVYLFTFGQGTKVEIKLEDKTHTKVEPKTSDKTHTCPPCPAPELLGGPSVFLFPPKPKDTLMISRTPEVTCVVVDVSHEDPEVKFNWYVDGVEVHNAKTKPREEQYNSTYRVVSVLTVLHQDWLNGKEYKCKVSNKALPAPIEKTISKAKGQPREPMVFDLPPSREEMTKNQVSLWCMVKGFYPSDIAVEWESNGQPENNYKTTPPVLDSDGSFFLYSKLTVDKSRWQQGNVFSCSVMHEALHNHYTQKSLSLSPGKSGSETPGTSESATPESGGGEVQLVESGGGLVQPGGSLRLSCAASGFNISYSSIHWVRQAPGKGLEWVAYISSYYGYTYYADSVKGRFTISADTSKNTAYLQMNSLRAEDTAVYYCARAHYFPWAGAMDYWGQGTLVTVSSGGGGSDIQMTQSPSSLSASVGDRVTITCRASQSVSSAVAWYQQKPGKAPKLLIYSASSLYSGVPSRFSGSRSGTDFTLTISSLQPEDFATYYCQQYYWPITFGQGTKVEIK
B2: CT0001 (bispecific antibody)
heavy 1: EVQLVESGGGLVQPGGSLRLSCAASGFNIHSSSIHWVRQAPGKGLEWVAATYSSFGSITYADSVKGRFTISADTSKNTAYLQMNSLRAEDTAVYYCARYHHPFGYALDYWGQGTLVTVSSASTKGPSVFPLAPSSKSTSGGTAALGCLVKDYFPEPVTVSWNSGALTSGVHTFPAVLQSSGLYSLSSVVTVPSSSLGTQTYICNVNHKPSNTKVDKKVEPKSCDKTHTCPPCPAPELLGGPSVFLFPPKPKDTLMISRTPEVTCVVVDVSHEDPEVKFNWYVDGVEVHNAKTKPREEQYNSTYRVVSVLTVLHQDWLNGKEYKCKVSNKALPAPIEKTISKAKGQPREPQVYTLPPIRELMTSNQVSLSCAVKGFYPSDIAVEWESNGQPENNYKTTPPVLDSDGSFFLVSKLTVDKSRWQQGNVFSCSVMHEALHNHYTQKSLSLSPGKSGSETPGTSESATPESGGGEVQLVESGGGLVQPGGSLRLSCAASGFNISSYYIHWVRQAPGKGLEWVASIYSSYGYTSYADSVKGRFTISADTSKNTAYLQMNSLRAEDTAVYYCARTVRGSKKPYFSGWAMDYWGQGTLVTVSSGGGGSDIQMTQSPSSLSASVGDRVTITCRASQSVSSAVAWYQQKPGKAPKLLIYSASSLYSGVPSRFSGSRSGTDFTLTISSLQPEDFATYYCQQYSWGPFTFGQGTKVEIK
heavy 2: EVQLVESGGGLVQPGGSLRLSCAASGFNIHSSSIHWVRQAPGKGLEWVAATYSSFGSITYADSVKGRFTISADTSKNTAYLQMNSLRAEDTAVYYCARYHHPFGYALDYWGQGTLVTVSSASTKGPSVFPLAPSSKSTSGGTAALGCLVKDYFPEPVTVSWNSGALTSGVHTFPAVLQSSGLYSLSSVVTVPSSSLGTQTYICNVNHKPSNTKVDKKVEPKSCDKTHTCPPCPAPELLGGPSVFLFPPKPKDTLMISRTPEVTCVVVDVSHEDPEVKFNWYVDGVEVHNAKTKPREEQYNSTYRVVSVLTVLHQDWLNGKEYKCKVSNKALPAPIEKTISKAKGQPREPMVFDLPPSREEMTKNQVSLWCMVKGFYPSDIAVEWESNGQPENNYKTTPPVLDSDGSFFLYSKLTVDKSRWQQGNVFSCSVMHEALHNHYTQKSLSLSPGKSGSETPGTSESATPESGGGEVQLVESGGGLVQPGGSLRLSCAASGFNISYSSIHWVRQAPGKGLEWVAYISSYYGYTYYADSVKGRFTISADTSKNTAYLQMNSLRAEDTAVYYCARAHYFPWAGAMDYWGQGTLVTVSSGGGGSDIQMTQSPSSLSASVGDRVTITCRASQSVSSAVAWYQQKPGKAPKLLIYSASSLYSGVPSRFSGSRSGTDFTLTISSLQPEDFATYYCQQYYWPITFGQGTKVEIK
light: DIQMTQSPSSLSASVGDRVTITCRASQSVSSAVAWYQQKPGKAPKLLIYSASSLYSGVPSRFSGSRSGTDFTLTISSLQPEDFATYYCQQGVYLFTFGQGTKVEIKRTVAAPSVFIFPPSDEQLKSGTASVVCLLNNFYPREAKVQWKVDNALQSGNSQESVTEQDSKDSTYSLSSTLTLSKADYEKHKVYACEVTHQGLSSPVTKSFNRGEC
B3: ANT-1 (bispecific antibody)
heavy 1: MNLLLILTFVAAAVAEFEVQLVESGGGLVQPGGSLRLSCAASGFNISSYYIHWVRQAPGKGLEWVASIYSSYGYTSYADSVKGRFTISADTSKNTAYLQMNSLRAEDTAVYYCARTVRGSKKPYFSGWAMDYWGQGTLVTVSSGGGGSDIQMTQSPSSLSASVGDRVTITCRASQSVSSAVAWYQQKPGKAPKLLIYSASSLYSGVPSRFSGSRSGTDFTLTISSLQPEDFATYYCQQYYFLITFGQGTKVEIKLEDKTHTKVEPKSSDKTHNCPPCPAPELLGGPSVFLFPPKPKDTLMISRTPEVTCVVVDVSHEDPEVKFNWYVDGVEVHNAKTKPREEQYNSTYRVVSVLTVLHQDWLNGKEYKCKVSNKALPAPIEKTISKAKGQPREPQVYTLPPIRELMTSNQVSLSCAVKGFYPSDIAVEWESNGQPENNYKTTPPVLDSDGSFFLVSKLTVDKSRWQQGNVFSCSVMHEALHNHYTQKSLSLSPGKSGSETPGTSESATPESGGGEVQLVESGGGLVQPGGSLRLSCAASGFNIHSSSIHWVRQAPGKGLEWVAATYSSFGSITYADSVKGRFTISADTSKNTAYLQMNSLRAEDTAVYYCARYHHPFGYALDYWGQGTLVTVSSASTKGPSVFPLAPSSKSTSGGTAALGCLVKDYFPEPVTVSWNSGALTSGVHTFPAVLQSSGLYSLSSVVTVPSSSLGTQTYICNVNHKPSNTKVDKKVEPKSCDKTHT
heavy 2: MNLLLILTFVAAAVAEFEVQLVESGGGLVQPGGSLRLSCAASGFNISYSSIHWVRQAPGKGLEWVASISPYYGYTYYADSVKGRFTISADTSKNTAYLQMNSLRAEDTAVYYCARSSYFPWFSAMDYWGQGTLVTVSSGGGGSDIQMTQSPSSLSASVGDRVTITCRASQSVSSAVAWYQQKPGKAPKLLIYSASSLYSGVPSRFSGSRSGTDFTLTISSLQPEDFATYYCQQYYWPITFGQGTKVEIKLEDKTHTKVEPKTSDKTHTCPPCPAPELLGGPSVFLFPPKPKDTLMISRTPEVTCVVVDVSHEDPEVKFNWYVDGVEVHNAKTKPREEQYNSTYRVVSVLTVLHQDWLNGKEYKCKVSNKALPAPIEKTISKAKGQPREPMVFDLPPSREEMTKNQVSLWCMVKGFYPSDIAVEWESNGQPENNYKTTPPVLDSDGSFFLYSKLTVDKSRWQQGNVFSCSVMHEALHNHYTQKSLSLSPGKSGSETPGTSESATPESGGGEVQLVESGGGLVQPGGSLRLSCAASGFNIHSSSIHWVRQAPGKGLEWVAATYSSFGSITYADSVKGRFTISADTSKNTAYLQMNSLRAEDTAVYYCARYHHPFGYALDYWGQGTLVTVSSASTKGPSVFPLAPSSKSTSGGTAALGCLVKDYFPEPVTVSWNSGALTSGVHTFPAVLQSSGLYSLSSVVTVPSSSLGTQTYICNVNHKPSNTKVDKKVEPKSCDKTHT
light: B2 light

This assay addresses FZD1/2/4/5/7/8. Briefly: cell-based or functional assay.
B1: the % Wnt Maxima Avg came out at 52%; the EC50 (nM), TOPFLASH assay worked out at 0.3 nM; the Maximal Signal (% Wnt3a maxima) (% Wnt3a maxima) turned out to be 52; the Topflash EC50 (nM) Avg worked out at 0.3 nM.

As for B2, the % Wnt Maxima Avg was 57%; the EC50 (nM), TOPFLASH assay is 0.3 nM; the Maximal Signal (% Wnt3a maxima) (% Wnt3a maxima) came to 57; the Topflash EC50 (nM) Avg was 0.3 nM.

For the molecule B3, the % Wnt Maxima Avg came out at 49%; the EC50 (nM), TOPFLASH assay is 0.7 nM; the Maximal Signal (% Wnt3a maxima) (% Wnt3a maxima) amounted to 50; the Topflash EC50 (nM) Avg amounted to 0.7 nM.
